Results as given in article doi:10.1101/2020.07.09.196626.

How the values were obtained:
[1] = biological target: V5 epitope-tagged soluble ZIKV E, covalently stabilised dimer carrying A264C (sE-cvD) (Zika virus (strain ArD158095)); assay: non-reducing SDS-PAGE
[2] = biological target: ZIKV full-length E protein carrying A264C (covalent dimer), in virus-like particles (VLP-cvD) (Zika virus (strain PE243)); assay: non-reducing SDS-PAGE with western blot

| Substance | stoichiometry N [1] | stoichiometry N [2] |
| --- | --- | --- |
| V5 epitope-tagged soluble ZIKV E, covalently stabilised dimer carrying A264C (sE-cvD) (domain or fragment) | 2 | – |
| ZIKV full-length E protein carrying A264C (covalent dimer), in virus-like particles (VLP-cvD) (natural protein) | – | 2 |
